± gives the standard deviation of the averaged measurements.
These sequences were tested on ATP (assay: switch fluorescence ratio, 500 uM ATP over buffer (Cy3 cluster intensity, sum of 5 cycles each) (fold (ratio)); higher = stronger signal-on switching upon ATP binding; sequences stand for … in TCGTCGGCAGCGTCAGATGTGTATAAGAGACAGTTTTTTTTTTTTTTTTTTTTTTTTT…TC). Settings: aptamer strand: ATP DNA aptamer (quencher-CACCTGGGGGAGTATTGCGGAGGAAGG + anchor), 100 nM annealed; ATP concentration: 500 uM.
Procedure, shortened: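 Imaging in selection buffer was followed by imaging after 15 min with 500 uM ATP at 22 °C, for Cy3-labelled switching-strand clusters annealed to 100 nM quencher-labelled ATP aptamer on a modified Illumina MiSeq flow-cell. Five of these buffer/ATP cycles ran, separated by NaOH stripping and re-annealing. The fluorescence ratio per cluster is summed target-cycle over summed buffer-cycle Cy3 intensity, averaged per switch-domain sequence; clusters outside 100-1000 RFU were removed.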
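Further: ATP exposure 15 min at 22 °C before imaging.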

| Sequence | switch fluorescence ratio |
| --- | --- |
| ATCTGCCTTG | 1 ± 0.019 |
| AGGTATTTGA | 0.984 ± 0.054 |
| GACCTATTTT | 1.023 ± 0.0039 |
| GCTGGGTAAC | 1.006 ± 0.0034 |
| AAAATATACA | 1.01 ± 0.027 |
| TTTCTGCAGT | 1.27 ± 0.38 |
| GATAGACGGA | 0.99171 ± 0.00018 |
| TAATGGTTGG | 0.99283 ± 0.00085 |
| ACCGCATTGT | 1.96 ± 0.23 |
| GTCGTAGCTT | 1.058 ± 0.0089 |
| TAGAAAGGGT | 1.01 ± 0.041 |
| AGGCAGACCG | 1.03 ± 0.07 |
| CGTCATTCGC | 1.05 ± 0.16 |
| ATCCCCGGAG | 1.33 ± 0.12 |
| GTGTTTGTCA | 0.981 ± 0.017 |
| CGAAGCGTCA | 1.081 ± 0.0014 |
| ATGGGGCTGA | 0.993 ± 0.029 |
| AAAATCACGG | 1.14 ± 0.1 |
| CTCCTTGTCG | 1.014 ± 0.0077 |
| TGTAAACGGG | 1.09 ± 0.12 |
| CAGCTACTTG | 1.05 ± 0.025 |
| TTGCATTTGT | 1 ± 0.03 |
| TGAGGTCATT | 0.989 ± 0.028 |

| Sequence | switch fluorescence ratio |
| --- | --- |
| GACACATCAA | 1.048 ± 0.008 |
| TAGGGGGGTC | 1 ± 0.066 |
| TGATTCAGGT | 1 ± 0.024 |
| TATGCCAGCG | 1.01 ± 0.025 |
| CCTTGGTATT | 0.998 ± 0.026 |
| TACAATGTTT | 1.02 ± 0.059 |
| GGGGGATTAG | 0.992 ± 0.022 |
| ATGCTTCTGT | 0.964 ± 0.013 |
| TGGGAATATG | 1 ± 0.036 |
| TTGGGAGAAT | 1.02 ± 0.09 |
| TTTGGGGAGT | 1 ± 0.088 |
| CCGTGCCGTT | 0.948 ± 0.024 |
| TTTATGAGT | 0.987 ± 0.022 |
| TAGCTTAACA | 0.979 ± 0.018 |
| GTTTCGGTTG | 0.972 ± 0.05 |
| AATACGGGAG | 0.995 ± 0.017 |
| TTTTCGGGTG | 1.05 ± 0.024 |
| TTATAGGGTA | 1 ± 0.017 |
| ATACGAGCAG | 1.067 ± 0.006 |
| GTTTTCTCAT | 0.989 ± 0.029 |
| GCGTATGTAC | 1.212 ± 0.0081 |
| TGAGGCCTAG | 1.02 ± 0.056 |
| TAAGGGTACG | 1.03 ± 0.058 |

| Sequence | switch fluorescence ratio |
| --- | --- |
| TTAGTTAGGT | 1.004 ± 0.0046 |
| GCTGTAACG | 1 ± 0.042 |
| CCTTTCGGGA | 1.73 ± 0.87 |
| GTGGGGTAGT | 0.995 ± 0.018 |
| GGGACGAATC | 1.006 ± 0.0041 |
| GAGGTGTCG | 1.04 ± 0.041 |
| CGAGCGGGTA | 0.989 ± 0.028 |
| AGATTTTTTG | 0.9926 ± 0.0073 |
| CGAGAATTGT | 0.9301 ± 0.0053 |
| TTGGCGCGGC | 1.1 ± 0.063 |
| GGGCAAGGGT | 0.977 ± 0.029 |
| AGGTGAAATC | 1.26 ± 0.34 |
| TACATGTAGC | 0.986 ± 0.02 |
| TTCCTGTTTC | 1.01 ± 0.023 |
| TTCCATATTT | 1.02 ± 0.026 |
| AATGTAAATA | 1.01 ± 0.018 |
| TTCGGCCCCA | 0.99 ± 0.031 |
| TGTGGAAGGT | 0.9999 ± 0.0078 |
| AGAGCCGGGG | 0.9777 ± 0.003 |
| TGAGAGTAGG | 0.9839 ± 0.0072 |
| CCTATGAATG | 0.987 ± 0.018 |
| CGGGGGTGG | 1.02 ± 0.062 |
| AAATTATCGG | 1 ± 0.042 |

| Sequence | switch fluorescence ratio |
| --- | --- |
| AGTAATTAGG | 1.027 ± 0.0043 |
| GGGGACTACT | 1 ± 0.025 |
| AAAGGGTTAG | 1 ± 0.028 |
| AGAGGCCATC | 0.9831 ± 0.0098 |
| GGTTGAAAGT | 1.48 ± 0.69 |
| GGGGGAGTAG | 0.983 ± 0.016 |
| GGGGGATTCT | 1.02 ± 0.011 |
| TTGGTTTTCC | 1.01 ± 0.028 |
| TTTGGGATT | 0.999 ± 0.036 |
| GTTGTTATGT | 1.01 ± 0.015 |
| GATCCTGAAC | 1.37 ± 0.12 |
| TTGCTACTCG | 1.62 ± 0.73 |
| GAATTATGTT | 1.01 ± 0.004 |
| CCGGGGTATT | 1.07 ± 0.033 |
| ATTCATTCGG | 0.992 ± 0.026 |
| TATTTCTGAT | 0.988 ± 0.016 |
| GATGTTATTA | 0.979 ± 0.038 |
| TTTGGAATCG | 1.01 ± 0.046 |
| CTCTCGGATG | 1.01 ± 0.011 |
| GTGTTATGTG | 0.9504 ± 0.0021 |
| CAAGGGTGTG | 0.988 ± 0.012 |
| TTGGATTTAT | 1.011 ± 0.0093 |
| AAACTTATAA | 0.991 ± 0.029 |

| Sequence | switch fluorescence ratio |
| --- | --- |
| TTTGAGGGCG | 1.01 ± 0.066 |
| ATAGACGAGG | 0.9809 ± 0.0011 |
| ATATCGGCAT | 1.01 ± 0.035 |
| ATGCACAGAT | 0.994 ± 0.027 |
| GGGATGGATC | 0.9929 ± 0.0011 |
| GGCCTACCAT | 0.9979 ± 0.0091 |
| ATCATTCCTC | 1.573 ± 0.011 |
| TTGTTATCCG | 0.964 ± 0.048 |
| CGCGGCAGGA | 1.02 ± 0.019 |
| ATGGCTTGTA | 0.999 ± 0.01 |
| CGTGACTGGT | 0.9683 ± 0.005 |
| GAGGATTAGA | 0.988 ± 0.015 |
| CATATGCTGC | 1.0589 ± 0.00039 |
| GACGTCGGGA | 1.012 ± 0.0021 |
| TTTATGAGG | 0.997 ± 0.019 |
| GGATGGTTTT | 1.02 ± 0.018 |
| CTTAAAGAGT | 0.964 ± 0.043 |
| TTCGGGATTT | 1.007 ± 0.0062 |
| TGGGAGGGGA | 1.03 ± 0.035 |
| TAGGGACGCC | 1.031 ± 0.0046 |
| GTTAGTGCGA | 1.01 ± 0.037 |
| AAGGAGACTA | 1.02 ± 0.05 |
| TAACGGAGAC | 1.35 ± 0.32 |

| Sequence | switch fluorescence ratio |
| --- | --- |
| TGAGGTATAT | 1.01 ± 0.015 |
| GCGGGCTTCA | 1.01 ± 0.025 |
| GACCCTGATA | 0.987 ± 0.015 |
| TTAGCTATCT | 1.04 ± 0.021 |
| GCTCTATACG | 1.049 ± 0.003 |
| AGGAGGAGGA | 1.07 ± 0.065 |
| TGGGGGCATA | 1.09 ± 0.1 |
| GTAACTGCAG | 0.993 ± 0.051 |
| CGTTTGTTTT | 1 ± 0.041 |
| CTGGCCTTTG | 0.983 ± 0.036 |
| TGCATTTTCG | 1.03 ± 0.049 |
| TTTTTATAT | 0.983 ± 0.031 |
| AACTAATCGC | 1.03 ± 0.029 |
| CACGAAGGGT | 1.02 ± 0.018 |
| GGATGTAGAA | 1.026 ± 0.0011 |
| GTCTTTTGTA | 0.983 ± 0.04 |
| AAAATATGGG | 0.987 ± 0.031 |
| TACTTTTATT | 1.026 ± 0.0066 |
| GTTTAATTTG | 1 ± 0.025 |
| TATCCCATAC | 1.49 ± 0.073 |
| TCGAAATCGG | 1.03 ± 0.021 |
| TCGAGTATCG | 1.02 ± 0.044 |
| CTGTCAAGTA | 0.972 ± 0.012 |

| Sequence | switch fluorescence ratio |
| --- | --- |
| AATGGGAATG | 1.013 ± 0.0052 |
| TCGGGCGCAT | 1.27 ± 0.026 |
| GGCATCAGGC | 1.03 ± 0.042 |
| TGCGAGGTTG | 1.01 ± 0.041 |
| TTCGTGCTTC | 0.963 ± 0.024 |
| AGCTGAAGTT | 0.989 ± 0.036 |
| TGGGTATGGG | 1.01 ± 0.037 |
| TTTTTTATTC | 1.15 ± 0.29 |
| AGGAGGCGAG | 0.9905 ± 0.0088 |
| GGGGTTCGTT | 1.01 ± 0.072 |
| GCGGGACGTT | 0.96828 ± 0.00072 |
| GTTTTTATTT | 0.976 ± 0.031 |
| ATTGTTGGGG | 0.967 ± 0.025 |
| GGAGCAGTTT | 1.12 ± 0.019 |
| TTAATAATTC | 0.996 ± 0.032 |
| AGGGTTTCTC | 0.989 ± 0.0011 |
| ATTTTTGGAG | 0.9792 ± 0.0053 |
| GATTCTTAAG | 1 ± 0.022 |
| GGGCTAGGGG | 0.994 ± 0.029 |
